In US20060259987A1 (UNIVERSITY OF UTAH RESEARCH FOUNDATION, published 2006):

Assays:
Test in all cases: cell-based or functional assay
[1] = target: thrombin (human, UniProt P00734 328-622)
[2] = target: factor Xa (human, UniProt P00742 41-179; P00742 235-488, limits assumed)
[3] = target: human thrombin (human, UniProt P00734 328-622)
[4] = target: human factor Xa (human, UniProt P00742 41-179; P00742 235-488, limits assumed)
human factor Xa, sequence (P00742 41-179 limits assumed, chain 1 of 2): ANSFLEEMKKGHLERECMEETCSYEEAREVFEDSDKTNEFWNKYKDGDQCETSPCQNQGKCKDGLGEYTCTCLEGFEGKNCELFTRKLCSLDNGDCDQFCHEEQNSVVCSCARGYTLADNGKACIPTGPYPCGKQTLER
human factor Xa, sequence (P00742 235-488 limits assumed, chain 2 of 2): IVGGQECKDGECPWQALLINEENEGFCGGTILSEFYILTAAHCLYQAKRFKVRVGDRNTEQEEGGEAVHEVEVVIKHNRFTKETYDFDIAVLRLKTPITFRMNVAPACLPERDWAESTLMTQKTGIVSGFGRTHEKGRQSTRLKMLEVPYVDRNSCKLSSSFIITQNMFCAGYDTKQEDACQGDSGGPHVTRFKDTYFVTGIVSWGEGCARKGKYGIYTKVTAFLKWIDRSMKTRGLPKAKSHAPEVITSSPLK

factor Xa, sequence (P00742 41-179 limits assumed, chain 1 of 2): as the sequence (P00742 41-179 limits assumed, chain 1 of 2) above
factor Xa, sequence (P00742 235-488 limits assumed, chain 2 of 2): as the sequence (P00742 235-488 limits assumed, chain 2 of 2) above

B1: LEAI.477 (other)
chain: SPVDICTAKPRDIPMNPMCIYRSPEKKATEDEGSEQKIPEATNRRVWELSKANSRFATTFYQHLADSKNDNDNIFLSPLSISTAFAMTKLGACNDTLQQLMEVFKFDTISEKTSDQIHFFFAKLNCRLYRKANKASKLVSANRLFGDKSLTFNETYQDISELVYGAKLQPLDFKENAEQSRAAINKWVSNKTEGRITDVIPSEAINELTVLVLVNTIYFKGLWKSKFSPENTRKELFYKADGESCSASMMYQEGKFRYRRVAEGTQVLELPFKGDDITMVLILPKPEKSLAKVEKELTPEVLQEWLDELEEMMLVVHMPRFRIEDGFSLKEQLQDMGLVDLFSPEKSKLPGIVAEGRDDLYVSDAFHKAFLEVNEEGSEAAASTALEAPGRSLNPNRVTFKANRPFLVFIREVPLNTIIFMGRVANPCVK
- IC50 IIa/UFH; HCA #4 [1]: 333 nM
- IC50 fXa/UFH; HCA #4 [2]: 18 nM

B2: LEAI.478 (other)
chain: SPVDICTAKPRDIPMNPMCIYRSPEKKATEDEGSEQKIPEATNRRVWELSKANSRFATTFYQHLADSKNDNDNIFLSPLSISTAFAMTKLGACNDTLQQLMEVFKFDTISEKTSDQIHFFFAKLNCRLYRKANKASKLVSANRLFGDKSLTFNETYQDISELVYGAKLQPLDFKENAEQSRAAINKWVSNKTEGRITDVIPSEAINELTVLVLVNTIYFKGLWKSKFSPENTRKELFYKADGESCSASMMYQEGKFRYRRVAEGTQVLELPFKGDDITMVLILPKPEKSLAKVEKELTPEVLQEWLDELEEMMLVVHMPRFRIEDGFSLKEQLQDMGLVDLFSPEKSKLPGIVAEGRDDLYVSDAFHKAFLEVNEEGSEAAASTALEASGRSLNPNRVTFKANRPFLVFIREVPLNTIIFMGRVANPCVK
- IC50 IIa/UFH; HCA #4 [1]: 100 nM
- rsd. IIa catG; CA #12; stg1 conc 200 [1]: 1%
- rsd. IIa hne; CA #12; stg1 conc 200 [1]: 79%
- rsd. IIa no add; CA #12; stg1 conc 200 [1]: 1%
- IC50 fXa/UFH; HCA #4 [2]: 12 nM
- rsd. Xa catG; CA #12; stg1 conc 200 [2]: 1%
- rsd. Xa hne; CA #12; stg1 conc 200 [2]: 1%
- rsd. Xa no add; CA #12; stg1 conc 200 [2]: 1%

B3: LEAI.479 (other)
chain: SPVDICTAKPRDIPMNPMCIYRSPEKKATEDEGSEQKIPEATNRRVWELSKANSRFATTFYQHLADSKNDNDNIFLSPLSISTAFAMTKLGACNDTLQQLMEVFKFDTISEKTSDQIHFFFAKLNCRLYRKANKASKLVSANRLFGDKSLTFNETYQDISELVYGAKLQPLDFKENAEQSRAAINKWVSNKTEGRITDVIPSEAINELTVLVLVNTIYFKGLWKSKFSPENTRKELFYKADGESCSASMMYQEGKFRYRRVAEGTQVLELPFKGDDITMVLILPKPEKSLAKVEKELTPEVLQEWLDELEEMMLVVHMPRFRIEDGFSLKEQLQDMGLVDLFSPEKSKLPGIVAEGRDDLYVSDAFHKAFLEVNEEGSEAAASTALEAWGRSLNPNRVTFKANRPFLVFIREVPLNTIIFMGRVANPCVK
- IC50 IIa/UFH; HCA #3 [1]: 280 nM
- IC50 fXa/UFH; HCA #3 [2]: 100 nM

B4: LEAI.481 (other)
chain: SPVDICTAKPRDIPMNPMCIYRSPEKKATEDEGSEQKIPEATNRRVWELSKANSRFATTFYQHLADSKNDNDNIFLSPLSISTAFAMTKLGACNDTLQQLMEVFKFDTISEKTSDQIHFFFAKLNCRLYRKANKASKLVSANRLFGDKSLTFNETYQDISELVYGAKLQPLDFKENAEQSRAAINKWVSNKTEGRITDVIPSEAINELTVLVLVNTIYFKGLWKSKFSPENTRKELFYKADGESCSASMMYQEGKFRYRRVAEGTQVLELPFKGDDITMVLILPKPEKSLAKVEKELTPEVLQEWLDELEEMMLVVHMPRFRIEDGFSLKEQLQDMGLVDLFSPEKSKLPGIVAEGRDDLYVSDAFHKAFLEVNEEGSEAAASTALEAGGRSLNPNRVTFKANRPFLVFIREVPLNTIIFMGRVANPCVK
- IC50 IIa/UFH; HCA #3 [1]: 220 nM
- IC50 fXa/UFH; HCA #3 [2]: 24 nM

B5: LEAQ.514 (other)
chain: SPVDICTAKPRDIPMNPMCIYRSPEKKATEDEGSEQKIPEATNRRVWELSKANSRFATTFYQHLADSKNDNDNIFLSPLSISTAFAMTKLGACNDTLQQLMEVFKFDTISEKTSDQIHFFFAKLNCRLYRKANKASKLVSANRLFGDKSLTFNETYQDISELVYGAKLQPLDFKENAEQSRAAINKWVSNKTEGRITDVIPSEAINELTVLVLVNTIYFKGLWKSKFSPENTRKELFYKADGESCSASMMYQEGKFRYRRVAEGTQVLELPFKGDDITMVLILPKPEKSLAKVEKELTPEVLQEWLDELEEMMLVVHMPRFRIEDGFSLKEQLQDMGLVDLFSPEKSKLPGIVAEGRDDLYVSDAFHKAFLEVNEEGSEAAASTVLEAQGRSLNPNRVTFKANRPFLVFIREVPLNTIIFMGRVANPCVK
- IC50 IIa/UFH (HCA #6) [3]: 105 nM
- IC50 fXa/UFH (HCA #6) [4]: 40 nM

B6: LEAQ.521 (other)
chain: SPVDICTAKPRDIPMNPMCIYRSPEKKATEDEGSEQKIPEATNRRVWELSKANSRFATTFYQHLADSKNDNDNIFLSPLSISTAFAMTKLGACNDTLQQLMEVFKFDTISEKTSDQIHFFFAKLNCRLYRKANKASKLVSANRLFGDKSLTFNETYQDISELVYGAKLQPLDFKENAEQSRAAINKWVSNKTEGRITDVIPSEAINELTVLVLVNTIYFKGLWKSKFSPENTRKELFYKADGESCSASMMYQEGKFRYRRVAEGTQVLELPFKGDDITMVLILPKPEKSLAKVEKELTPEVLQEWLDELEEMMLVVHMPRFRIEDGFSLKEQLQDMGLVDLFSPEKSKLPGIVAEGRDDLYVSDAFHKAFLEVNEEGSEAAASTHLEAQGRSLNPNRVTFKANRPFLVFIREVPLNTIIFMGRVANPCVK
- IC50 IIa/UFH (HCA #6) [3]: 100 nM
- IC50 fXa/UFH (HCA #6) [4]: 25 nM

B7: 13C.432 (other)
chain: SPVDICTAKPRDIPMNPMCIYRSPEKKATEDEGSEQKIPEATNRRVWELSKANSRFATTFYQHLADSKNDNDNIFLSPLSISTAFAMTKLGACNDTLQQLMEVFKFDTISEKTSDQIHFFFAKLNCRLYRKANKASKLVSANRLFGDKSLTFNETYQDISELVYGAKLQPLDFKENAEQSRAAINKWVSNKTEGRITDVIPSEAINELTVLVLVNTIYFKGLWKSKFSPENTRKELFYKADGESCSASMMYQEGKFRYRRVAEGTQVLELPFKGDDITMVLILPKPEKSLAKVEKELTPEVLQEWLDELEEMMLVVHMPRFRIEDGFSLKEQLQDMGLVDLFSPEKSKLPGIVAEGRDDLYVSDAFHKAFLEVNEEGSEAAASTELEIAGRSLNPNRVTFKANRPFLVFIREVPLNTIIFMGRVANPCVK
- IC50 IIa/UFH; HCA #2 [3]: 460 nM
- IC50 fXa/UFH; HCA #2 [4]: 45 nM

B8: LEAI (other)
chain: SPVDICTAKPRDIPMNPMCIYRSPEKKATEDEGSEQKIPEATNRRVWELSKANSRFATTFYQHLADSKNDNDNIFLSPLSISTAFAMTKLGACNDTLQQLMEVFKFDTISEKTSDQIHFFFAKLNCRLYRKANKASKLVSANRLFGDKSLTFNETYQDISELVYGAKLQPLDFKENAEQSRAAINKWVSNKTEGRITDVIPSEAINELTVLVLVNTIYFKGLWKSKFSPENTRKELFYKADGESCSASMMYQEGKFRYRRVAEGTQVLELPFKGDDITMVLILPKPEKSLAKVEKELTPEVLQEWLDELEEMMLVVHMPRFRIEDGFSLKEQLQDMGLVDLFSPEKSKLPGIVAEGRDDLYVSDAFHKAFLEVNEEGSEAAASTALEAIGRSLNPNRVTFKANRPFLVFIREVPLNTIIFMGRVANPCVK
- IC50 IIa/UFH; HCA #2 [1]: 45 nM
- IC50 fXa/UFH; HCA #2 [2]: 37 nM

B9: LEAI.471 (other)
chain: SPVDICTAKPRDIPMNPMCIYRSPEKKATEDEGSEQKIPEATNRRVWELSKANSRFATTFYQHLADSKNDNDNIFLSPLSISTAFAMTKLGACNDTLQQLMEVFKFDTISEKTSDQIHFFFAKLNCRLYRKANKASKLVSANRLFGDKSLTFNETYQDISELVYGAKLQPLDFKENAEQSRAAINKWVSNKTEGRITDVIPSEAINELTVLVLVNTIYFKGLWKSKFSPENTRKELFYKADGESCSASMMYQEGKFRYRRVAEGTQVLELPFKGDDITMVLILPKPEKSLAKVEKELTPEVLQEWLDELEEMMLVVHMPRFRIEDGFSLKEQLQDMGLVDLFSPEKSKLPGIVAEGRDDLYVSDAFHKAFLEVNEEGSEAAASTALEARGRSLNPNRVTFKANRPFLVFIREVPLNTIIFMGRVANPCVK
- IC50 IIa/UFH; HCA #2 [1]: 37 nM
- IC50 IIa/UFH; HCA #3 [1]: 35 nM
- rsd. IIa catG; CA #12; stg1 conc 200 [1]: 0%
- rsd. IIa catG; CA #14; stg1 conc 200 [1]: 1%
- rsd. IIa catG; CA #15; stg1 conc 200 [1]: 1%
- rsd. IIa hne; CA #12; stg1 conc 200 [1]: 62%
- rsd. IIa hne; CA #14; stg1 conc 200 [1]: 41%
- rsd. IIa hne; CA #15; stg1 conc 200 [1]: 65%
- rsd. IIa no add; CA #12; stg1 conc 200 [1]: 0%
- rsd. IIa no add; CA #14; stg1 conc 200 [1]: 2%
- rsd. IIa no add; CA #15; stg1 conc 200 [1]: 2%
- IC50 fXa/UFH; HCA #2 [2]: 275 nM
- IC50 fXa/UFH; HCA #3 [2]: 320 nM
- rsd. Xa catG; CA #12; stg1 conc 200 [2]: 48%
- rsd. Xa catG; CA #14; stg1 conc 200 [2]: 59%
- rsd. Xa catG; CA #15; stg1 conc 200 [2]: 82%
- rsd. Xa hne; CA #12; stg1 conc 200 [2]: 86%
- rsd. Xa hne; CA #14; stg1 conc 200 [2]: 100%
- rsd. Xa hne; CA #15; stg1 conc 200 [2]: 103%
- rsd. Xa no add; CA #12; stg1 conc 200 [2]: 45%
- rsd. Xa no add; CA #14; stg1 conc 200 [2]: 44%
- rsd. Xa no add; CA #15; stg1 conc 200 [2]: 57%

B10: LEAI.473 (other)
chain: SPVDICTAKPRDIPMNPMCIYRSPEKKATEDEGSEQKIPEATNRRVWELSKANSRFATTFYQHLADSKNDNDNIFLSPLSISTAFAMTKLGACNDTLQQLMEVFKFDTISEKTSDQIHFFFAKLNCRLYRKANKASKLVSANRLFGDKSLTFNETYQDISELVYGAKLQPLDFKENAEQSRAAINKWVSNKTEGRITDVIPSEAINELTVLVLVNTIYFKGLWKSKFSPENTRKELFYKADGESCSASMMYQEGKFRYRRVAEGTQVLELPFKGDDITMVLILPKPEKSLAKVEKELTPEVLQEWLDELEEMMLVVHMPRFRIEDGFSLKEQLQDMGLVDLFSPEKSKLPGIVAEGRDDLYVSDAFHKAFLEVNEEGSEAAASTALEADGRSLNPNRVTFKANRPFLVFIREVPLNTIIFMGRVANPCVK
- IC50 IIa/UFH; HCA #4 [1]: > 1000 nM
- IC50 fXa/UFH; HCA #4 [2]: 28 nM
